Assay results reported in PMC9272907, “Penpulimab, an Fc-Engineered IgG1 Anti-PD-1 Antibody, With Improved Efficacy and Low Incidence of Immune-Related Adverse Events” (Frontiers in Immunology, 2022).

B1: AK105 (hG4), an IgG4 backbone version of penpulimab (antibody, V domains shown)
VH: EVQLVESGGGLVQPGGSLRLSCAASGFAFSSYDMSWVRQAPGKGLDWVATISGGGRYTYYPDSVKGRFTISRDNSKNNLYLQMNSLRAEDTALYYCANRYGEAWFAYWGQGTLVTVSS
VL: DIQMTQSPSSMSASVGDRVTFTCRASQDINTYLSWFQQKPGKSPKTLIYRANRLVSGVPSRFSGSGSGQDYTLTISSLQPEDMATYYCLQYDEFPLTFGAGTKLELK
B2: Penpulimab (antibody, V domains shown)
VH: EVQLVESGGGLVQPGGSLRLSCAASGFAFSSYDMSWVRQAPGKGLDWVATISGGGRYTYYPDSVKGRFTISRDNSKNNLYLQMNSLRAEDTALYYCANRYGEAWFAYWGQGTLVTVSS
VL: DIQMTQSPSSMSASVGDRVTFTCRASQDINTYLSWFQQKPGKSPKTLIYRANRLVSGVPSRFSGSGSGQDYTLTISSLQPEDMATYYCLQYDEFPLTFGAGTKLELK
notes: heavy chain variable domain of penpulimab; light chain of penpulimab; Human IgG1 anti-PD-1 antibody with Fc mutations; probably a Fab; also called AK105
B3: AK105 (hG1WT), a version of penpulimab with wildtype IgG1 backbone (antibody, V domains shown)
VH: EVQLVESGGGLVQPGGSLRLSCAASGFAFSSYDMSWVRQAPGKGLDWVATISGGGRYTYYPDSVKGRFTISRDNSKNNLYLQMNSLRAEDTALYYCANRYGEAWFAYWGQGTLVTVSS
VL: DIQMTQSPSSMSASVGDRVTFTCRASQDINTYLSWFQQKPGKSPKTLIYRANRLVSGVPSRFSGSGSGQDYTLTISSLQPEDMATYYCLQYDEFPLTFGAGTKLELK

What was measured:
FcγRIa (human) = FcγRIa (human) (UniProt P12314); assay: BLI; ForteBio Octet QKe; FcγRIa immobilised on HIS1K sensor; antibody 50 nM to 3.12 nM in solution; 120 s binding and 120 s dissociation
FcγRIIa_H131 (human) = FcγRIIa_H131 (human) (UniProt P12318); assay: BLI; ForteBio Octet QKe; FcγRIIa_R131 or FcγRIIa_H131 immobilised on NTA sensor; antibody 200 nM to 12.5 nM in solution; 60 s binding and 60 s dissociation
FcγRIIa_R131 (human) = assay: as above
FcγRIIIa_V158 (human) = assay: BLI; ForteBio Octet QKe; FcγRIIIa_F158 or FcγRIIIa_V158 (5 μg/mL) immobilised on HIS1K sensor; antibody 500 nM to 31.25 nM in solution; 60 s binding and 60 s dissociation
[1] = biological target: T1, human PD-1 extracellular domain fused to human IgG Fc domain (PD-1-hFc) (Homo sapiens, UniProt Q15116); assay: SPR; Biacore T200; PD-1-hFc immobilised on CM5 chip; antibody 50 nM to 1.56 nM flowed; 180 s binding, 420 s dissociation; settings: both partners purified
T1 construct: human programmed cell death protein 1 (PD-1), extracellular domain

FcγRIIIa_F158 (human) = FcγRIIIa_F158 (human) (UniProt P08637); assay: BLI; ForteBio Octet QKe; FcγRIIIa_F158 or FcγRIIIa_V158 (5 μg/mL) immobilised on HIS1K sensor; antibody 500 nM to 31.25 nM in solution; 60 s binding and 60 s dissociation
FcγRIIIa_F158 (human), sequence (P08637 17-254): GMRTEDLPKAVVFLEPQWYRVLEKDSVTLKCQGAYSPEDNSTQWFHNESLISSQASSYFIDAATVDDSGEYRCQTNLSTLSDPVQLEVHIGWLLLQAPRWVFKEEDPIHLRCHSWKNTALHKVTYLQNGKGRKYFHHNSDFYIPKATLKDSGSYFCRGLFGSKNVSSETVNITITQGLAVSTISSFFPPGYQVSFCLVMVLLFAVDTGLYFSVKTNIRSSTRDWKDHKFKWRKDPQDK

FcγRIIa_H131 (human), sequence (P12318 34-317): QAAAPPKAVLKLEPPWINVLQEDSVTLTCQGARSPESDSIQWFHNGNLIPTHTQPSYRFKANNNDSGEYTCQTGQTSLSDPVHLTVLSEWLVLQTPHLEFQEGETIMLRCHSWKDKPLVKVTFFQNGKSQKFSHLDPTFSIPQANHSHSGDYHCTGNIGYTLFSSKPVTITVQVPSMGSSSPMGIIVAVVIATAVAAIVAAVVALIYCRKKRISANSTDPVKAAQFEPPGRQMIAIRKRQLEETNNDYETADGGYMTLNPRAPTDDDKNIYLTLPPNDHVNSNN
FcγRIa (human), sequence (P12314 16-374): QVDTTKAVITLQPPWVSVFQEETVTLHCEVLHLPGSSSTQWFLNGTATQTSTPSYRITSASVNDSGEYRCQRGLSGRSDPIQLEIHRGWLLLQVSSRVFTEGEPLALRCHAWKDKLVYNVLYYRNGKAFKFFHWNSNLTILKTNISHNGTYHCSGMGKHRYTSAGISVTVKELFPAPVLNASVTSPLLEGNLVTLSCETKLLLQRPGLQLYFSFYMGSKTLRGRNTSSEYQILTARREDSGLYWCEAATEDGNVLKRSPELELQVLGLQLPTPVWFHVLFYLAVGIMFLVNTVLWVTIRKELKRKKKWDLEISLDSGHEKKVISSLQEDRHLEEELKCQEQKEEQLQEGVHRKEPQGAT
T1 sequence (Q15116 25-170): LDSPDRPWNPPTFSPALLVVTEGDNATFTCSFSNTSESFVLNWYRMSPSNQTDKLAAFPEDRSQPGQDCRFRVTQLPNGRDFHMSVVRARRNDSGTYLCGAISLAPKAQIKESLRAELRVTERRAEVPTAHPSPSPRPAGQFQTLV

Row | Kd (FcγRIa (human)) | koff (FcγRIa (human)) | kon (FcγRIa (human)) | Kd (FcγRIIa_H131 (human)) | koff (FcγRIIa_H131 (human)) | kon (FcγRIIa_H131 (human)) | Kd (FcγRIIa_R131 (human)) | koff (FcγRIIa_R131 (human)) | kon (FcγRIIa_R131 (human)) | Kd (FcγRIIIa_V158 (human)) | koff (FcγRIIIa_V158 (human)) | kon (FcγRIIIa_V158 (human)) | Kd [1] | koff [1] | kon [1] | Kd (FcγRIIIa_F158 (human)) | koff (FcγRIIIa_F158 (human)) | kon (FcγRIIIa_F158 (human)) | Binder
1 | 8.25 nM | 0.00478 s⁻¹ | 579000 M⁻¹ s⁻¹ | 50.7 nM | 0.013 s⁻¹ | 257000 M⁻¹ s⁻¹ | 31.3 nM | 0.011 s⁻¹ | 350000 M⁻¹ s⁻¹ | 23500 nM | 0.0837 s⁻¹ | 3560 M⁻¹ s⁻¹ | – | – | – | – | – | – | B1
2 | – | – | – | – | – | – | 232 nM | 0.0938 s⁻¹ | 404000 M⁻¹ s⁻¹ | – | – | – | 0.588 nM | 9.51e-05 s⁻¹ | 162000 M⁻¹ s⁻¹ | – | – | – | B2
3 | 3.35 nM | 0.00213 s⁻¹ | 636000 M⁻¹ s⁻¹ | 57.4 nM | 0.0267 s⁻¹ | 465000 M⁻¹ s⁻¹ | 34.6 nM | 0.0228 s⁻¹ | 660000 M⁻¹ s⁻¹ | 197 nM | 0.0329 s⁻¹ | 167000 M⁻¹ s⁻¹ | – | – | – | 238 nM | 0.04 s⁻¹ | 168000 M⁻¹ s⁻¹ | B3
